Measurements reported in patent publication US20250388696A1 (NAVIGO PROTEINS, published 2025).
Where no end group is shown, it is not given here.

T1: hFAP-Fc (human, UniProt Q12884 26-760, limits assumed)
T1 construct: also called Fc-tagged target (FAP)
T1 sequence (looked up): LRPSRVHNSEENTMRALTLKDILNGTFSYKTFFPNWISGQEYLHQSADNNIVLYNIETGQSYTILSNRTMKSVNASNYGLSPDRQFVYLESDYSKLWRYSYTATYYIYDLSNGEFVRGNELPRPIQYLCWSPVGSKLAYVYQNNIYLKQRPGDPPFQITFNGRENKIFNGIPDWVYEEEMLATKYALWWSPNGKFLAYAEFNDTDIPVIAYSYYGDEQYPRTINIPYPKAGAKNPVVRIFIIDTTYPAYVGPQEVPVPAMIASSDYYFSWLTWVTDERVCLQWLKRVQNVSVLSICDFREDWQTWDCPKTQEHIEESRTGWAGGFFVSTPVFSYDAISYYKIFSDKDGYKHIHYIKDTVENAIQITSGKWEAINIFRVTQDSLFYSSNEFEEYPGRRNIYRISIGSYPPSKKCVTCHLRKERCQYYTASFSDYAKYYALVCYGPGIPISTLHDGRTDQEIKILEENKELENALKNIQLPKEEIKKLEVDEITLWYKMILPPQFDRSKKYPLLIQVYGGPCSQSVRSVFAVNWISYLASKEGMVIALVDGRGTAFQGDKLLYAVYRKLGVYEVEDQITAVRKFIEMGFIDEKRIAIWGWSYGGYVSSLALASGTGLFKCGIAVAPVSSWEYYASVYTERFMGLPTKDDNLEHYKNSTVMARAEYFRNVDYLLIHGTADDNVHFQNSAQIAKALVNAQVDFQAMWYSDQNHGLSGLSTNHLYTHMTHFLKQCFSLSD


Key:
[1] = target: T2, Her2-Fc (human, UniProt P04626 23-652); assay: ELISA on coated Her2-Fc; KD 24 h against KD 0 h, human serum
T2 construct: Coated in ELISA
Method: (§1) High binding plates (Greiner, 781061) were immobilized with 2.5 μg/ml hFAP-Fc or 1.2 μg/ml Her2-Fc over night at 4° C. Dilution series of 3 μM to 0.07 pM of fusion proteins with binding specifically to Her2 were incubated in 100% human serum or 100% mouse serum for 24 h at 37° C. Dilution series of 3 µM to 0.2 pM or 1 μM to 0.01 fM of fusion proteins with binding specifically to hFAP were incubated in 100% human serum or 100% mouse serum for 24 h at 37° C. ELISA-plates were washed three times with PBST (PBS+0.1% Tween) and blocked with 3% BSA/0.5% Tween/PBS up to 2 h at room temperature (rt). After preincubation for 0 h or 24 h in the presence of serum the dilution series were incubated on ELISA-plates for up to 1 h at rt. Wells were washed with PBST and incubated with biotinylated anti-ubiquitin-antibody (1:300) for up to 1 h at rt. The binding was visualized with Streptavidin-HRP (1:5.000).
(§2) The fusion proteins comprise the albumin binding domain (referred to as HED) and the targeting moiety.

[2] = target: T2, Her2-Fc; assay: ELISA on coated Her2-Fc; after 24 h in human serum at 37 C
Method: as §1, §2

[3] = target: T2, Her2-Fc; assay: ELISA on coated Her2-Fc; 0 h in human serum
Method: as §1, §2

[4] = target: T2, Her2-Fc; assay: ELISA on coated Her2-Fc; 24 h in human serum at 37 C
Method: as §1, §2

[5] = target: T2, Her2-Fc; assay: ELISA on coated Her2-Fc; 0 h in mouse serum
Method: as §1, §2

[6] = target: T2, Her2-Fc; assay: ELISA on coated Her2-Fc; 24 h in mouse serum at 37 C
Method: as §1, §2

[7] = target: T2, Her2-Fc; assay: ELISA on coated Her2-Fc; after 24 h in mouse serum at 37 C
Method: as §1, §2

[8] = target: T3, Her2 (immobilised on the SPR chip) (human, UniProt P04626 23-652, limits assumed); assay: SPR, Her2 immobilised on the chip, pH 7.3, 1:1 Langmuir fit [continued]
T3 construct: construct not described; also called human epidermal growth factor receptor 2
Method: (§3) Recombinant protein A, HSA, MSA or target (either ED-B or Her2) was immobilized on a High Capacity Amine sensor chip (Bruker) after NHS/EDC activation with a Sierra SPR-32 system (Bruker). The chip was equilibrated with SPR running buffer (PBS 0.05%, Tween pH 7.3). Injection of ethanolamine after target immobilization was used to block free NHS groups. To determine the binding of fusion proteins to FAP, the Fc-tagged target was injected with 60 or 30 nM to Protein A coupled spots followed by the injection of fusion proteins.
(§4) Binding proteins were applied to the chip in serial dilutions with a flow rate of 30 μl/min. Upon binding, analyte accumulated on the surface increasing the refractive index. This change in the refractive index was measured in real time and plotted as response or resonance units versus time. The association was performed for 120 seconds and the dissociation for 180 seconds. After each run, the chip surface was regenerated with 30 μl regeneration buffer (10 mM glycine pH 2.0 or pH 1.5) and equilibrated with running buffer. Binding studies were carried out using the Sierra SPR-32 system (Bruker); data evaluation was operated via the Sierra Analyser software, provided by the manufacturer, by the use of the Langmuir 1:1 model (RI=0).

[9] = target: T2, Her2-Fc; assay: ELISA on coated Her2-Fc; KD 24 h against KD 0 h, mouse serum
Method: as §1, §2

[10] = target: T4, Her2 expressed on Sk-Br-3 cells (human, UniProt P04626 23-1255); assay: flow cytometry, dilution series on Sk-Br-3 cells
T4 construct: whole, on cells; also called human epidermal growth factor receptor 2
Method: Her2 expressing Sk-Br-3-cells and HEK293-hFAP overexpressing cells were thawed, washed with medium containing FCS, subsequently washed with FACS blocking buffer (PBS/0.1% Sodium Azide/3% FCS) and 100 μl seeded in 96-well round bottom plates with a density of 1×10⁶ cells/ml. Dilution series from 10 µM to 8.6 fM (CID 217781, CID 217787) and a dilution series of 3 µM to 0.2 μM (CID 218466, CID 218467, 218512, CID 218513, CID 218514, CID 218515, CID 218516) were incubated on Her2-expressing Sk-Br-3-cells and dilution series from 1 μM to 0.07 μM of fusion proteins 218690 and 218702 were incubated on hFAP-overexpressing HEK293-cell line for 45 min at 4° C. After centrifugation the supernatants were removed and cells were washed with FACS blocking buffer and 100 μl/well rabbit anti-Strep-Tag antibody (GenScript; A00626), 1:300 diluted in FACS blocking buffer were added. After removal of the primary antibody goat anti-rabbit IgG Alexa Fluor 488 antibody (Invitrogen; A4008) was applied in a 1:1000 dilution in FACS blocking buffer. Flow cytometry measurement was conducted on the Guava easyCyte 5HT device from Merck-Millipore at excitation wavelength 488 nm and emission wavelength 525/30 nm. The * in table 2 refers to a fusion protein with the albumin binding domain as dimer (homo-dimer) and/or the targeting moiety as dimer.

[11] = target: T5, human serum albumin (human, UniProt P02768 25-609); assay: SPR, HSA immobilised on the chip, pH 7.3, 1:1 Langmuir fit [continued]
T5 construct: also called HSA
T5 sequence (P02768 25-609 limits assumed): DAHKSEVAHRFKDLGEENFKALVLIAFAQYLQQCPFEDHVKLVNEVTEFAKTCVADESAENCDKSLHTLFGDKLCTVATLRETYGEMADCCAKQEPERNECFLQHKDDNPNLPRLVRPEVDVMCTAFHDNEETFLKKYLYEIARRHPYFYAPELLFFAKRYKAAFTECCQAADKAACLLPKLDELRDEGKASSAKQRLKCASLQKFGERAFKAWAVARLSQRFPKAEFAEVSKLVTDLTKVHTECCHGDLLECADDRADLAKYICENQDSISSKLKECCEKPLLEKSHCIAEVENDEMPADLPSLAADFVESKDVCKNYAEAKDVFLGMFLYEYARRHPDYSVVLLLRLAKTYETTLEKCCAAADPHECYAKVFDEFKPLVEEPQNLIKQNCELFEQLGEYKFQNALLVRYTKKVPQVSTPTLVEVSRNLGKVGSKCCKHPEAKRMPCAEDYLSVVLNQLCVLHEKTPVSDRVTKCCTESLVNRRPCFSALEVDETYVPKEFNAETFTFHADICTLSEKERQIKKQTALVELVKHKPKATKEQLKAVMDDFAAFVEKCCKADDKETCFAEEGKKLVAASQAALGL
Method: as §3, §4

[12] = target: T1, hFAP-Fc; assay: SPR, Fc-tagged FAP captured on immobilised protein A, pH 7.3, 1:1 Langmuir fit
Method: as §3, §4

[13] = target: T5, human serum albumin; assay: SPR, HSA immobilised on the chip, pH 7.3, 1:1 Langmuir fit
Method: as §3, §4

[14] = target: T6, mouse serum albumin (mouse, UniProt P07724 25-608); assay: SPR, MSA immobilised
T6 construct: also called MSA
Method: as §3, §4

[15] = target: T5, human serum albumin; assay: SPR, HSA immobilised
Method: as §3, §4

| Binder | increase of KD vs target [fold] [1] | max binding after 24 h [%] [2] | Kd [3] | Kd [4] | Kd [5] | Kd [6] | max binding after 24 h [%] [7] | Kd [8] | increase of KD vs target [fold] [9] | Kd [10] | Kd [11] | Kd [12] | Kd [13] | Kd [14] | Kd [15] |
| --- | --- | --- | --- | --- | --- | --- | --- | --- | --- | --- | --- | --- | --- | --- | --- |
| fusion protein 217781 (designed binder, not shown: small tags and cut ends, also called CID 217781) chain (part 1 of 2): not shown chain (part 2 of 2): LAEAKVLALKELDKYGISNYYKNLINNAKTIEGVKALKEAIVAA | 1.29 fold | 94.1% | 0.61 nM | 0.79 nM | 0.36 nM | 0.63 nM | 97.7% | 4.1 nM | 1.72 fold | 2.05 nM | 2.9 nM | – | – | – | – |
| fusion protein 218467 (designed binder, not shown: small tags and cut ends, also called CID 218467) chain (part 1 of 2): not shown chain (part 2 of 2): LAEAKVLAIKELDKAGISNYYFNLINNAKTVEGVKDLKAQIVAA | 1.05 fold | 99% | 0.34 nM | 0.36 nM | 0.17 nM | 0.2 nM | 104% | – | 1.2 fold | 3.81 nM | – | – | – | – | – |
| LAEAKVLALKELDKYGISNYYKNLINNAKTIESVKALKDEIVAA (designed binder, not shown: small tags and cut ends, also: part of fusion protein, targeting moiety, linker, tag and order not given here) [Fusion proteins with albumin binding domain c42 (SEQ ID NO: 34)] | – | – | – | – | – | – | – | – | – | – | – | – | – | ≥ 100 nM | ≥ 100 nM |
| fusion protein 217787 (designed binder, not shown: small tags and cut ends, also called CID 217787) chain (part 1 of 2): not shown chain (part 2 of 2): LAEAKVLALKELDKYGISDFYKRLIDKAKTIEGVEALKDAILAA | 0.63 fold | 96.2% | 0.84 nM | 0.53 nM | 0.42 nM | 0.6 nM | 100% | 7.3 nM | 1.43 fold | 2.17 nM | 0.6 nM | – | – | – | – |
| fusion protein 218512 (designed binder, not shown: small tags and cut ends, also called CID 218512) chain (part 1 of 2): not shown chain (part 2 of 2): LAEAKVLALKELDKYGISNYYKNLINNAKTVEGVKALKEAIVAA | 1.58 fold | 100% | 0.23 nM | 0.36 nM | 0.2 nM | 0.24 nM | 98.6% | 2.7 nM | 1.2 fold | 1.72 nM | 1.8 nM | – | – | – | – |
| fusion protein 218466 (designed binder, not shown: small tags and cut ends, also called CID 218466) chain (part 1 of 2): not shown chain (part 2 of 2): LAEAKVLALKELDKYGISNYYKNLINNAKTIEGVKALKDEIVAA | 0.93 fold | 95.1% | 0.34 nM | 0.32 nM | 0.21 nM | 0.23 nM | 96.6% | 4.4 nM | 1.14 fold | 2.69 nM | 6.3 nM | – | – | – | – |
| fusion protein 218692 (designed binder, not shown: small tags and cut ends, also called CID 218692) chain (part 1 of 2): not shown chain (part 2 of 2): LAEAKVLAIKELDKAGISNYYFNLINNAKTVEGVKDLKAQIVAA | – | – | – | – | – | – | – | – | – | – | – | 4 nM | 5 nM | – | – |

The remaining lines, values ahead:

| increase of KD vs target [fold] [1] | max binding after 24 h [%] [2] | Kd [3] | Kd [4] | Kd [5] | Kd [6] | max binding after 24 h [%] [7] | Kd [8] | increase of KD vs target [fold] [9] | Kd [10] | Kd [11] | Kd [12] | Kd [13] | Kd [14] | Kd [15] | Binder |
| --- | --- | --- | --- | --- | --- | --- | --- | --- | --- | --- | --- | --- | --- | --- | --- |
| – | – | – | – | – | – | – | – | – | – | – | 5.8 nM | 5.9 nM | – | – | fusion protein 218703 (designed binder, not shown: small tags and cut ends, also called CID 218703) chain (part 1 of 2): not shown chain (part 2 of 2): LAEAKVLALKELDKYGISNYYKNLINNAKTIEGVKALKAQIVAA |
| 1.06 fold | 96.4% | 0.29 nM | 0.3 nM | 0.21 nM | 0.25 nM | 100% | 3.3 nM | 1.19 fold | 2.19 nM | 1.8 nM | – | – | – | – | fusion protein 218514 (designed binder, not shown: small tags and cut ends, also called CID 218514) chain (part 1 of 2): not shown chain (part 2 of 2): LAEAKVLALKELDKYGISNYYKNLINNAKTIEGVEALKDAILAA |
| 1.27 fold | 100% | 0.34 nM | 0.43 nM | 0.25 nM | 0.31 nM | 106% | 3.3 nM | 1.23 fold | 2.48 nM | 1.9 nM | – | – | – | – | fusion protein 218513 (designed binder, not shown: small tags and cut ends, also called CID 218513) chain (part 1 of 2): not shown chain (part 2 of 2): LAEAKVLALKELDKYGISNYYKNLINNAKTVEGVEALKEAILAA |
| – | – | – | – | – | – | – | – | – | – | – | 4.4 nM | 7.3 nM | – | – | fusion protein 218708 (designed binder, not shown: small tags and cut ends, also called CID 218708) chain (part 1 of 2): not shown chain (part 2 of 2): LAEAKVLALKELDKYGISNYYKNLINNAKTVEGVKALKEAIVAALP |
| – | – | – | – | – | – | – | – | – | – | – | 3.4 nM | 0.9 nM | – | – | fusion protein 218687 (designed binder, not shown: small tags and cut ends, also called CID 218687) chain (part 1 of 2): not shown chain (part 2 of 2): LAEAKVLALKELDKYGISNYYKNLINNAKTVEGVKALKEAIVAA |
